Test results as given in the supplement of paper PMC6757056.
± gives the standard deviation of the averaged measurements.

B1: library; a variant is named by its letters at N, in order (parent)
chain: GCUGUCACCGGUGUAUUACCCUAGUGGUCGACCGGUCUGAUGAGUCUNNNNNNAGACGAAACAGC

Legend:
hypoxanthine [1] = variants of: B1; experiment: normalized RNA/DNA level with ligand (relative to sTRSVctl = 100) (log10 (% of sTRSVctl)); ligand: hypoxanthine (xanthine aptamer); higher = less ribozyme self-cleavage, higher mRNA level; settings: ligand concentration (+) RNA-Seq: 5 mM, HEK293T, reporter: mCherry (pCS4076), ligand present: yes
Method in brief: (§1)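 Ribozyme switch library plasmids with mCherry reporters (eGFP in certain ligand experiments) went into HEK293T cells at 4 µg per 6-well well. Where ligand was used, it was applied 1 h before transfection, and total RNA was extracted with EDTA 72 h later for reverse transcription, amplification, barcoding and sequencing. RNA level is the RNA-to-DNA read ratio normalized to a spiked-in non-cleaving sequence or to the leading sequences, then scaled and log-transformed. Scaling was ×100 with log10, the leading set comprised 25 sequences, and the cutoff was ≥100 DNA reads.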

hypoxanthine [2] = variants of: B1; experiment: normalized RNA/DNA level without ligand (relative to sTRSVctl = 100) (log10 (% of sTRSVctl)); ligand: hypoxanthine (xanthine aptamer); higher = less ribozyme self-cleavage, higher mRNA level; settings: HEK293T, reporter: mCherry (pCS4076), ligand present: no
Method in brief: as §1

Row | Variant | normalized RNA/DNA level with ligand (log10) (hypoxanthine [1]) | normalized RNA/DNA level without ligand (log10) (hypoxanthine [2])
1 | CGAGCG | 1.94 ± 0.057 | 1.8 ± 0.02
2 | CGAGCU | 1.968 ± 0.0032 | 1.86 ± 0.052
3 | UGAACC | 1.9742 ± 0.00065 | 1.92 ± 0.057
4 | UGAACG | 1.91 ± 0.034 | 1.823 ± 0.0083
5 | GGAAUC | 1.9 ± 0.035 | 1.81 ± 0.057
6 | CCUUAG | 1.98 ± 0.025 | 1.72 ± 0.037
7 | CCUUAA | 1.96 ± 0.034 | 1.85 ± 0.038
8 | CCUUAU | 1.95 ± 0.014 | 1.93 ± 0.069
9 | CCUUAC | 1.94 ± 0.025 | 1.829 ± 0.0071
10 | AGAGCC | 1.955 ± 0.018 | 1.823 ± 0.017
11 | AGAGCA | 1.94 ± 0.065 | 1.75 ± 0.027
12 | AGAGCU | 1.93 ± 0.029 | 1.83 ± 0.046
13 | GGAAAU | 1.9 ± 0.071 | 1.77 ± 0.053
14 | GGAAAC | 1.939 ± 0.018 | 1.84 ± 0.014
15 | CGACUU | 1.9958 ± 0.0011 | 1.896 ± 0.012
16 | CGACUC | 2.06 ± 0.027 | 2.006 ± 0.0054
17 | CGACUA | 1.95 ± 0.079 | 1.698 ± 0.0058
18 | CGACUG | 1.94 ± 0.023 | 1.828 ± 0.012
19 | CCUCAU | 1.97 ± 0.078 | 1.87 ± 0.02
20 | UCUGGU | 1.96 ± 0.031 | 1.69 ± 0.084

Row | Variant | normalized RNA/DNA level with ligand (log10) (hypoxanthine [1]) | normalized RNA/DNA level without ligand (log10) (hypoxanthine [2])
21 | GGACCA | 1.916 ± 0.0027 | 1.881 ± 0.0056
22 | GGACCC | 1.96 ± 0.065 | 1.93 ± 0.023
23 | GGACCU | 1.98 ± 0.056 | 1.9838 ± 0.0012
24 | CCUUUU | 1.966 ± 0.019 | 1.892 ± 0.018
25 | CCUUUG | 1.96 ± 0.09 | 1.81 ± 0.076
26 | CCUUUA | 1.948 ± 0.019 | 1.84 ± 0.035
27 | CCUUUC | 2 ± 0.1 | 1.98 ± 0.046
28 | AGAGGC | 1.987 ± 0.014 | 1.86 ± 0.068
29 | AGAGGG | 1.837 ± 0.0044 | 1.44 ± 0.035
30 | ACUCCA | 2.014 ± 0.018 | 1.91 ± 0.023
31 | ACUCCU | 1.965 ± 0.011 | 1.905 ± 0.018
32 | CGACGA | 1.93 ± 0.064 | 1.803 ± 0.0041
33 | CGACGU | 1.956 ± 0.0063 | 1.86 ± 0.075
34 | AGACAC | 1.92 ± 0.025 | 1.76 ± 0.033
35 | GCUCGU | 1.96 ± 0.042 | 1.83 ± 0.048
36 | UCUUGC | 1.98 ± 0.1 | 1.9 ± 0.022
37 | UCUUGG | 1.92 ± 0.035 | 1.751 ± 0.008
38 | UCUUGU | 1.91 ± 0.1 | 1.667 ± 0.0039
39 | CGAAAG | 1.94 ± 0.04 | 1.839 ± 0.0055
40 | UCUCCA | 1.93 ± 0.069 | 1.77 ± 0.019

Row | Variant | normalized RNA/DNA level with ligand (log10) (hypoxanthine [1]) | normalized RNA/DNA level without ligand (log10) (hypoxanthine [2])
41 | UCUCCG | 1.85 ± 0.036 | 1.43 ± 0.1
42 | UCUCCU | 1.99 ± 0.059 | 1.87 ± 0.028
43 | UCUCCC | 1.98 ± 0.14 | 1.77 ± 0.022
44 | CCUGGC | 2.01 ± 0.037 | 1.924 ± 0.00087
45 | CCUGGA | 1.996 ± 0.0047 | 1.88 ± 0.02
46 | CCUGGG | 1.94 ± 0.027 | 1.508 ± 0.014
47 | CCUGGU | 1.945 ± 0.014 | 1.88 ± 0.0076
48 | GCUCAG | 1.86 ± 0.019 | 1.31 ± 0.057
49 | GCUCAC | 1.94 ± 0.08 | 1.84 ± 0.053
50 | GCUCAU | 1.95 ± 0.026 | 1.801 ± 0.018
51 | CGACCU | 1.98 ± 0.032 | 1.92 ± 0.056
52 | CGACCC | 2.03 ± 0.046 | 1.98 ± 0.086
53 | CGACCA | 1.99 ± 0.045 | 1.85 ± 0.053
54 | CGACCG | 1.905 ± 0.0089 | 1.92 ± 0.023
55 | GCUGCC | 1.96 ± 0.15 | 1.83 ± 0.093
56 | GCUGCU | 1.92 ± 0.076 | 1.884 ± 0.013
57 | GCUGCA | 1.98 ± 0.021 | 1.83 ± 0.034
58 | CGAAUG | 1.913 ± 0.003 | 1.883 ± 0.008
